Experimental data from patent US20230056821A1.
Each block holds one substance with its values, some of them ahead of it.

Tests used:
C3b [1] = biological target: C3b (UniProt P01024); experiment: SPR, Biacore T200
C4b (human) [2] = biological target: C4b (human) (UniProt P0C0L4); experiment: SPR, Biacore T200
C3b [3] = biological target: C3b (UniProt P01024); experiment: cell-based or functional assay
C4b (human) [4] = biological target: C4b (human) (UniProt P0C0L4); experiment: cell-based or functional assay
PlGF = biological target: T1, PlGF (UniProt P49763); experiment: SPR, Biacore T200
T1 sequence (looked up): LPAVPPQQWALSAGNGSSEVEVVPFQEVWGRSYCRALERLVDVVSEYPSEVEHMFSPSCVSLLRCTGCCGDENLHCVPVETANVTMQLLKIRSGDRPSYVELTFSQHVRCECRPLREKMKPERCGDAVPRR

VEGF-A121 = VEGF-A121 (UniProt P15692); experiment: SPR, Biacore T200
VEGF-A165 (human) [5] = biological target: VEGF-A165 (human) (UniProt P15692); experiment: SPR, Biacore T200
VEGF-A165 (human) [6] = biological target: VEGF-A165 (human) (UniProt P15692); experiment: cell-based or functional assay

Aflibercept injection (Fc fusion), sequence (chain): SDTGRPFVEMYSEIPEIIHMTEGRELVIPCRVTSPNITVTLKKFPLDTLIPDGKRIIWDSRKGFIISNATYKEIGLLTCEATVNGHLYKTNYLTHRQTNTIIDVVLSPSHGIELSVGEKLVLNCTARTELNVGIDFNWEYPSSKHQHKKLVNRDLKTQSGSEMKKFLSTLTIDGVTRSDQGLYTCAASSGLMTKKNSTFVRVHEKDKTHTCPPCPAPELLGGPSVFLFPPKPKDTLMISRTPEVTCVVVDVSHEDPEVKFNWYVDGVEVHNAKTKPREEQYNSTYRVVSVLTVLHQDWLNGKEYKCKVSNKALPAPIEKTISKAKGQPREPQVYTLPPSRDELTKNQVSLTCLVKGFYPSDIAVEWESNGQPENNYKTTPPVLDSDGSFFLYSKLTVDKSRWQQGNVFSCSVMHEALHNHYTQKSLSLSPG
VEGF-A121, sequence (P15692 other isoform, or with tags, fused parts or gaps limits assumed): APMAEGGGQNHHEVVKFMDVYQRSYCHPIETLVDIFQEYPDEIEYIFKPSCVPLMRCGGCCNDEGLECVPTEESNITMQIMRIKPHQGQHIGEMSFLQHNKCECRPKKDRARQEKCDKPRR
C4b (human), sequence (P0C0L4 20-1744): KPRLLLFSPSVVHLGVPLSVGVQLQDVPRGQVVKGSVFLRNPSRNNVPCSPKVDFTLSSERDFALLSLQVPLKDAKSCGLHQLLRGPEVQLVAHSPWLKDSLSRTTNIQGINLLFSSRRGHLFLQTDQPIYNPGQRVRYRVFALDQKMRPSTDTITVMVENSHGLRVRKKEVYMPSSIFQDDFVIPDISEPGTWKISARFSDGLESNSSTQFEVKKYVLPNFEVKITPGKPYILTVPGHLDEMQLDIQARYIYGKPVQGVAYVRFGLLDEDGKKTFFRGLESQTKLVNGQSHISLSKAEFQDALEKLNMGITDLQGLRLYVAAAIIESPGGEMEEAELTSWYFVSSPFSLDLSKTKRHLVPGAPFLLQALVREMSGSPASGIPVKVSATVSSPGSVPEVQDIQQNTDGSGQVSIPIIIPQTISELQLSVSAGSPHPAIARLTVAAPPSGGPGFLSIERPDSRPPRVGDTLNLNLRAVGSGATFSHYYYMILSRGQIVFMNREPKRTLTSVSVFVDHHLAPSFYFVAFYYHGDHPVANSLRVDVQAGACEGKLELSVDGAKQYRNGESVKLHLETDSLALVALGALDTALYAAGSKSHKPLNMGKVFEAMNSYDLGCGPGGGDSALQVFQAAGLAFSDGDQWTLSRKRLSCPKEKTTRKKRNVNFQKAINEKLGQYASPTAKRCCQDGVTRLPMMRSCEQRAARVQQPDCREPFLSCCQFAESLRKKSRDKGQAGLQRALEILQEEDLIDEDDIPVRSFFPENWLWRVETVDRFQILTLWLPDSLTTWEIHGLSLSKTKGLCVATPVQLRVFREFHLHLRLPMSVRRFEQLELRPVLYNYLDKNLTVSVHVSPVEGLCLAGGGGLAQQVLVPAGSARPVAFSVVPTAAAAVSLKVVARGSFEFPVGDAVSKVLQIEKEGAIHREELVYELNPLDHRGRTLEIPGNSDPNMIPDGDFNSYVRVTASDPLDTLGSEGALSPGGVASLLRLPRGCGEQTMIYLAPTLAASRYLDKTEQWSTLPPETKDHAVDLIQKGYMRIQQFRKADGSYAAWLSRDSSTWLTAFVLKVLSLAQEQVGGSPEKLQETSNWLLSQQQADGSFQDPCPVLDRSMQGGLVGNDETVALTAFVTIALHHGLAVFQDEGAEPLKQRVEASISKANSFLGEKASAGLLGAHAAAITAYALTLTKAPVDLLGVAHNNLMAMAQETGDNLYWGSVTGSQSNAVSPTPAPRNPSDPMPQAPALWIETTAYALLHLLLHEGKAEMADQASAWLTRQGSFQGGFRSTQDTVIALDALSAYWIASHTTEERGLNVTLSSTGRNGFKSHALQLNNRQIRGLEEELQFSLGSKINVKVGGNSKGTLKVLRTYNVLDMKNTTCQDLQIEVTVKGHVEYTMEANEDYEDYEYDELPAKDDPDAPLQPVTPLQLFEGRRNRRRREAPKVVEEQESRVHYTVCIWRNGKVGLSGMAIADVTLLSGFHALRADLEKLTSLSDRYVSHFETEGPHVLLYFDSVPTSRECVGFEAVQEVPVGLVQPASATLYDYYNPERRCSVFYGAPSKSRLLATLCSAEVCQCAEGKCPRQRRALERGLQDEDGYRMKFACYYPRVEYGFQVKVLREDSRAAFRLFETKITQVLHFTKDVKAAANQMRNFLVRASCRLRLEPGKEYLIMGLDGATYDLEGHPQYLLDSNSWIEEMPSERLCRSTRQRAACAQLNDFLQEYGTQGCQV
VEGF-A165 (human), sequence (P15692 other isoform, or with tags, fused parts or gaps limits assumed): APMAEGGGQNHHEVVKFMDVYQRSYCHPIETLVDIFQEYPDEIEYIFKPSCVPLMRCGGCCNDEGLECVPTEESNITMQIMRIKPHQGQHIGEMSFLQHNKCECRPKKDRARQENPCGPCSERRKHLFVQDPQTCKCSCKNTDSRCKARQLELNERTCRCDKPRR

- Kd (C3b [1]): 0.35 nM
- koff (C3b [1]): 0.0011 s⁻¹
- kon (C3b [1]): 3.16e+06 M⁻¹ s⁻¹
- Kd (C4b (human) [2]): 17.1 nM
- koff (C4b (human) [2]): 0.000805 s⁻¹
- kon (C4b (human) [2]): 47000 M⁻¹ s⁻¹
Substance: Human complement receptor type 1 (from UniProt P17927 42-1971)

- Kd (C3b [1]): 9.96 nM
- koff (C3b [1]): 0.00287 s⁻¹
- kon (C3b [1]): 288000 M⁻¹ s⁻¹
- Kd (C4b (human) [2]): 7.75 nM
- koff (C4b (human) [2]): 0.00335 s⁻¹
- kon (C4b (human) [2]): 432000 M⁻¹ s⁻¹
Substance: IBI302 (Fc fusion)
- EC50, inhibition of hemolysis of rabbit red blood cells induced by human serum complement (alternative pathway) (C3b [3]): 14.6 nM
- EC50, inhibition of hemolysis of sensitized sheep red blood cells induced by human serum complement (classical pathway) (C3b [3]): 2.51 nM
- EC50, inhibition of hemolysis of rabbit red blood cells induced by human serum complement (alternative pathway) (C4b (human) [4]): 14.6 nM
- EC50, inhibition of hemolysis of sensitized sheep red blood cells induced by human serum complement (classical pathway) (C4b (human) [4]): 2.51 nM

- Kd (PlGF): 1.16 nM
- koff (PlGF): 0.00384 s⁻¹
- kon (PlGF): 3.32e+06 M⁻¹ s⁻¹
- Kd (VEGF-A121): 0.00778 nM
- koff (VEGF-A121): 4.25e-05 s⁻¹
- kon (VEGF-A121): 5.46e+06 M⁻¹ s⁻¹
- Kd (VEGF-A165 (human) [5]): 0.00387 nM
- koff (VEGF-A165 (human) [5]): 7.93e-05 s⁻¹
- kon (VEGF-A165 (human) [5]): 2.05e+07 M⁻¹ s⁻¹
- EC50 (ng/mL), inhibition of VEGF-A-induced HUVEC proliferation (CCK-8) (VEGF-A165 (human) [6]): 41 ng/mL
- EC50, inhibition of VEGF-A-induced HUVEC proliferation (CCK-8) (VEGF-A165 (human) [6]): 0.357 nM
Substance: Aflibercept injection (Fc fusion)
